By Km is commonly meant the substrate concentration at which the rate is half of its maximum.

Substrate in data set [1]: N[C@@H](CCC(=O)N[C@H](CSc1ccc([N+](=O)[O-])cc1[N+](=O)[O-])C(=O)NCC(=O)O)C(=O)O
As to the kind of experiment: (§1) TP_TRANSPORTER: uptake in membrane vesicles from GLC4/ADR cells. The data set is classed as functional, cell membranes, GLC-4/ADR, Membrane vesicle.

Substrate in data set [2]: N[C@@H](CCC(=O)N[C@@H](CSSC[C@H](NC(=O)CC[C@H](N)C(=O)O)C(=O)NCC(=O)O)C(=O)NCC(=O)O)C(=O)O
Described as §1. Format: functional, cell membranes, GLC-4/ADR, Membrane vesicle.

B1: Multidrug resistance-associated protein 1 (Homo sapiens) (protein)
chain: MALRGFCSADGSDPLWDWNVTWNTSNPDFTKCFQNTVLVWVPCFYLWACFPFYFLYLSRHDRGYIQMTPLNKTKTALGFLLWIVCWADLFYSFWERSRGIFLAPVFLVSPTLLGITMLLATFLIQLERRKGVQSSGIMLTFWLVALVCALAILRSKIMTALKEDAQVDLFRDITFYVYFSLLLIQLVLSCFSDRSPLFSETIHDPNPCPESSASFLSRITFWWITGLIVRGYRQPLEGSDLWSLNKEDTSEQVVPVLVKNWKKECAKTRKQPVKVVYSSKDPAQPKESSKVDANEEVEALIVKSPQKEWNPSLFKVLYKTFGPYFLMSFFFKAIHDLMMFSGPQILKLLIKFVNDTKAPDWQGYFYTVLLFVTACLQTLVLHQYFHICFVSGMRIKTAVIGAVYRKALVITNSARKSSTVGEIVNLMSVDAQRFMDLATYINMIWSAPLQVILALYLLWLNLGPSVLAGVAVMVLMVPVNAVMAMKTKTYQVAHMKSKDNRIKLMNEILNGIKVLKLYAWELAFKDKVLAIRQEELKVLKKSAYLSAVGTFTWVCTPFLVALCTFAVYVTIDENNILDAQTAFVSLALFNILRFPLNILPMVISSIVQASVSLKRLRIFLSHEELEPDSIERRPVKDGGGTNSITVRNATFTWARSDPPTLNGITFSIPEGALVAVVGQVGCGKSSLLSALLAEMDKVEGHVAIKGSVAYVPQQAWIQNDSLRENILFGCQLEEPYYRSVIQACALLPDLEILPSGDRTEIGEKGVNLSGGQKQRVSLARAVYSNADIYLFDDPLSAVDAHVGKHIFENVIGPKGMLKNKTRILVTHSMSYLPQVDVIIVMSGGKISEMGSYQELLARDGAFAEFLRTYASTEQEQDAEENGVTGVSGPGKEAKQMENGMLVTDSAGKQLQRQLSSSSSYSGDISRHHNSTAELQKAEAKKEETWKLMEADKAQTGQVKLSVYWDYMKAIGLFISFLSIFLFMCNHVSALASNYWLSLWTDDPIVNGTQEHTKVRLSVYGALGISQGIAVFGYSMAVSIGGILASRCLHVDLLHSILRSPMSFFERTPSGNLVNRFSKELDTVDSMIPEVIKMFMGSLFNVIGACIVILLATPIAAIIIPPLGLIYFFVQRFYVASSRQLKRLESVSRSPVYSHFNETLLGVSVIRAFEEQERFIHQSDLKVDENQKAYYPSIVANRWLAVRLECVGNCIVLFAALFAVISRHSLSAGLVGLSVSYSLQVTTYLNWLVRMSSEMETNIVAVERLKEYSETEKEAPWQIQETAPPSSWPQVGRVEFRNYCLRYREDLDFVLRHINVTINGGEKVGIVGRTGAGKSSLTLGLFRINESAEGEIIIDGINIAKIGLHDLRFKITIIPQDPVLFSGSLRMNLDPFSQYSDEEVWTSLELAHLKDFVSALPDKLDHECAEGGENLSVGQRQLVCLARALLRKTKILVLDEATAAVDLETDDLIQSTIRTQFEDCTVLTIAHRLNTIMDYTRVIVLDKGEIQEYGAPSDLLQQRGLFYSMAKDAGLV
For the protein B1, the Km in data set [1] was 1.2 µM; in data set [2], 43 µM.

The record behind these values is ChEMBL document CHEMBL2074115, “Anthracyclines modulate multidrug resistance protein (MRP) mediated organic anion transport” (Biochim Biophys Acta, 1997).
